According to patent US8497352B2, “Use of Wnt5-α peptide derivates for the treatment of melanoma and gastric cancer” (Wntresearch AB, priority 2008, dated 2013):

Legend:
Type in all cases: cell-based, human
[1] = tested on: A2058 melanoma cells; assay: Cell adhesion assay, A2058 cells; conditions: recombinant Wnt-5a, 60 min adhesion
Description: Cells pre-treated and stimulated as described below were detached with Versene, re-suspended in serum-free RPMI medium and samples containing 30,000 cells from each treatment group were added to each well of a 96-well plate The cells were allowed to adhere for 60 min at 37° C. in a humidified atmosphere of 5% carbon dioxide after which the non-adherent cells were washed away with PBS. The adherent cells were fixed in 1% glutaraldehyde for 10 min at room temperature and then stained with 0.5% crystal violet in 20% methanol for 10 min. Finally the stain from each group of cells was dissolved in 50% acetic acid. The amount of dissolved stain from each well was thereafter measured in a Fluostar plate reader (BMG Lab Technologies GmbH, Offenberg, Germany) at 544 nm. The individual samples from each separate experiment were analysed in quadruplicate and the accumulated data were based on 5 separate experiments. The results are illustrated in FIG. 4. • A) A2058 melanoma cells were stimulated with the indicated concentrations of Wnt-5a, detached with Versene and resuspended as single cells in serum-free medium in the presence or absence of recombinant Wnt-5a at the indicated concentrations. Cells were then allowed to adhere in a 96-well plate. After a period of 60 min the non-adherent cells were washed away while the adherent cells were stained and their number determined. This number is presented as a percentage of the control (no Wnt-5a) stimulation (FIG. 4A) • B) A2058 melanoma cells were cultured to confluence in a 12-well plate after which a scratch was inflicted in each well, the medium was changed to fresh serum-free medium lacking (closed circles) or containing 0.2 μg/ml Wnt-5a (open squares). (FIG. 4B) • C) A2058 melanoma cells were cultured to confluence in a 12-well plate after which a scratch was inflicted to each well, the medium was changed to fresh serum-free medium in the absence of any additive (closed circle), the presence of 0.2 μg/ml Wnt-5a alone (open squares) or the presence of 0.2 μg/ml Wnt-5a with 100 μM Box5 (open triangle). (FIG. 4C) • D) HTB63 melanoma cells were cultured to confluence in a 12-well dish after which a scratch was inflicted to each well, the medium was changed to fresh serum-free medium (closed circle), conditioned medium (open squares) or conditioned medium supplemented with 100 μM Box5 (open triangle). To record changes in migration in panels B-D, a picture was taken from each scratch/well from the same area of cells after 0, 16, 24, 40 or 48 hours, and the wound-healing was expressed as percentage of wound area closed. […] The cells were then allowed to invade for 24 hours after which the attached cells on the lower side of the membrane were counted. […]

[2] = tested on: PKC; assay: MARCKS phosphorylation (PKC activity) in A2058 cells, Western blot; conditions: rWnt-5a 0.2 μg/ml
Description: The cells were either directly lysed in 1× Laemmli buffer containing DTT and boiled for 10 min, or lysed in buffer containing 50 mM Tris-HCl (pH 7.5), 1% Triton X-100, 100 mM NaCl, 10 mM MgCl2, 20% glycerol, 1 mM Na3VO4, and protease inhibitors (20 μg/ml aprotinin, 1 μg/ml leupeptin, 2.5 mM benzamidine, and 2 mM pefabloc). Cell treated with lysis buffer were centrifuged at 15,000 rpm for 5 min at 4° C. The protein content in each sample was determined and adjusted to ensure equal loading of protein in each lane. Thereafter, 50 mM DTT and 5× concentrated Laemmli buffer was added and the samples boiled for 5 min. The samples were separated by SDS polyacrylamide gel electrophoresis and subsequently transferred to PVDF membranes. For immunoblotting the membranes were blocked in PBS supplemented with 0.2% Tween 20 and 1% non-fat milk for Wnt-5a or 3% non-fat milk as for all other antibodies for 1 h. […] Finally, the Ab-antigen complexes were detected using enhanced chemiluminescence. […]
In the present study the level of PKC auto-phosphorylation (Weeraratna et al., 2002, Dissanayake et al., 2007) was not estimated since its relation to PKC kinase activity is unclear. Instead the effects of Wnt-5a and Box5 on the phosphorylation of the endogenous PKC substrate MARCKS were analyzed as a direct means of estimating the activity level of PKC in the melanoma cells. […]

[3] = tested on: A2058 melanoma cells; assay: BD Matrigel invasion chamber assay, A2058 cells; conditions: 0.2 μg/ml Wnt-5a, 24 hours
Description: Cell invasion was analyzed using the BD Matrigel™ invasion chamber assay (BD Biosciences, Bedford, Mass.). Prior to the initiation of each experiment, the cells were detached with Versene and re-suspended as single cells in serum-free RPMI medium. As indicated, cells were pre-incubated with the Box5 peptide (100 μM) or control solvent for 40 min with continuous agitation. An aliquot of the cell suspension containing 25,000 cells and 100 μM Box5 or control solvent was then added to the upper transwell chamber, and the lower chamber was filled with serum-containing (10%) medium. The invasion chambers were shaken horizontally for 5 min to ensure even distribution of the cells in suspension and subsequently across the membrane surface. The cells were allowed to invade for the periods of time indicated at 37° C. in a humidified atmosphere of 5% CO2. The medium was discarded and cells were fixed in 4% paraformaldehyde for 10 min. The cells were stained with 0.5% crystal violet in 20% methanol for 10 min and the non-invading cells on the inner side of the membrane were removed with a cotton-tipped applicator. The membrane was cut out of the chamber using a scalpel blade and the stained cells on the lower chamber side of the membrane were counted.

B1: Wnt-5a: human recombinant Wnt-5a protein from R&D Systems (protein, UniProt P41221 62-380, looked up)
Protein Wnt-5a: IIGAQPLCSQLAGLSQGQKKLCHLYQDHMQYIGEGAKTGIKECQYQFRHRRWNCSTVDNTSVFGRVMQIGSRETAFTYAVSAAGVVNAMSRACREGELSTCGCSRAARPKDLPRDWLWGGCGDNIDYGYRFAKEFVDARERERIHAKGSYESARILMNLHNNEAGRRTVYNLADVACKCHGVSGSCSLKTCWLQLADFRKVGDALKEKYDSAAAMRLNSRGKLVQVNSRFNSPTTQDLVYIDPSPDYCVRNESTGSLGTQGRLCNKTSEGMDGCELMCCGRGYDQFKTVQTERCHCKFHWCCYVKCKKCTEIVDQFVCK
[1]
  Concentration giving maximal effect on adhesion of A2058 cells: 0.2 µg/mL
  Effect on adhesive capacity of A2058 cells: enhanced
[2]
  Effect on phosphorylation of MARCKS: increased phosphorylation
[3]
  Effect on invasion of A2058 cells: stimulate
